Reference: paper PMC10049462, “Molecular Structure of Phosphoserine Aminotransferase from Saccharomyces cerevisiae” (International Journal of Molecular Sciences, 2023)

Molecular target: the molecule itself
Experiment: crystal structure; sitting-drop vapor diffusion at 20 °C; optimized crystals from 2.4 M ammonium sulfate, 0.1 M citric acid pH 3.5; space group P3(1)21; 2.8 Å; apo form; dimer in the asymmetric unit

B1: Saccharomyces cerevisiae phosphoserine aminotransferase (enzyme, S. cerevisiae, UniProt P33330 1-395, looked up)
chain: MSLEREEPQHFGAGPAQMPTPVLQQAAKDLINFNDIGLGIGEISHRSKDATKVIEDSKKHLIELLNIPDTHEVFYLQGGGTTGFSSVATNLAAAYVGKHGKIAPAGYLVTGSWSQKSFEEAKRLHVPAEVIFNAKDYNNGKFGKIPDESLWEDKIKGKAFSYVYLCENETVHGVEWPELPKCLVNDPNIEIVADLSSDILSRKIDVSQYGVIMAGAQKNIGLAGLTLYIIKKSILKNISGASDETLHELGVPITPIAFDYPTVVKNNSAYNTIPIFTLHVMDLVFQHILKKGGVEAQQAENEEKAKILYEALDANSDFYNVPVDPKCRSKMNVVFTLKKDGLDDQFLKEAAARHLTGLKGHRSVGGFRASIYNALSVKAVQNLVDFIKEFAEKNA
notes: Phosphoserine aminotransferase (PSAT) of S. cerevisiae, encoded by SER1; full-length gene amplified from genomic DNA and cloned into pET28a; residues 1-395 (large domain 54-293, small domain 294-395); apo form without PLP; residues 1-53, 218-220 and 268-271 not modelled in the crystal structure; they may come from different strains; also called ScPSAT; PSAT; source: E. coli BL21 (DE3) Star, …
For B1, the “stoichiometry N” value was 2.
